Experimental data taken from patent US11957762B2, “Immune tolerant and non-immune tolerant elastin-like recombinant peptides and methods of use” (University of Utah Research Foundation, priority 2015, dated 2024).
Entries after “also recorded” stand apart in the source; their conditions may differ. Like-named read-outs stand apart in the source and are kept apart here.

B1: iTEP-MPBH-ABA-Sali: conjugate of hydrophilic iTEP (SEQ ID NO: 58) with Sali-ABA-MPBH, self-assembled into a NP (conjugate)
chain: GGAGVPGGAGVPGGAGVPGGAGVPGGAGVPGGAGVPGGAGVPGGAGVPGGAGVPGGAGVPGGAGVPGGAGVPGGAGVPGGAGVPGGAGVPGGAGVPGGAGVPGGAGVPGGAGVPGGAGVPGGAGVPGGAGVPGGAGVPGGAGVPGGAGVPGGAGVPGGAGVPGGAGVPGGAGVPGGAGVPGGAGVPGGAGVPGGAGVPGGAGVPGGAGVPGGAGVPGGAGVPGGAGVPGGAGVPGGAGVPGGAGVPGGAGVPGGAGVPGGAGVPGGAGVPGGAGVPGGAGVPGGAGVPGGAGVPGGAGVPGGAGVPGGAGVPGGAGVPGGAGVPGGAGVPGGAGVPGGAGVPGGAGVPGGAGVPGGAGVPGGAGVPGGAGVPGGAGVPGGAGVPGGAGVPGGAGVPGGAGVPGGAGVPGGAGVPGGAGVPGGGVLPGVGGVLPGVGGVLPGVGGVLPGVGGVLPGVGGVLPGVGGVLPGVGGVLPGVGGVLPGVGGVLPGVGGVLPGVGGVLPGVGGVLPGVGGVLPGVGGVLPGVGGVLPGVGGVLPGVGGVLPGVGGVLPGVGGVLPGVGGVLPGVGGVLPGVGGVLPGVGGVLPGVGGVLPGVGGVLPGVGGVLPGVGGVLPGVGGVLPGVGGVLPGVGGVLPGVGGVLPGVGGVLPGVGGVLPGVGGVLPGVGGVLPGVGGVLPGVGGVLPGVGGVLPGVGGVLPGVGGVLPGVGGVLPGVGGVLPGVGGVLPGVGGVLPGVGGVLPGVGGVLPGVGGVLPGVGGVLPGVGGVLPGVGGVLPGVGGVLPGVGGVLPGVGGVLPGVGGVLPGVGGVLPGVGG
modifications: conjugated to Sali via ABA-MPBH linker

Columns and labels:
regular 4T1-luc cells = test: Cytotoxicity, regular 4T1-luc cells; format: cell-based, murine
Description: (§1) Cytotoxicity studies. The cytotoxicity was measured as previously described (Zhao, et al; Mol. Pharm, 2014; 11(8):2703-12). The incubation time was 72 hours. 4T1-lu mammosphere cells were generated as the previously described (Zhao, et al; Mol. Pharm, 2014; 11(8):2703-12).

[1] = Tissue distribution of Sali-ABA in 4T1-luc tumored mice; details: mouse, in vivo, 24 h
Description: (§2) Pharmacokinetics and biodistribution study. Sali-ABA concentrations in blood and tissues were analyzed, and the concentrations were analyzed as previously described (Zhao, et al; Mol. Pharm, 2014; 11(8):2703-12).
The aforementioned slow clearance and particle size of iTEP-MPBH-ABA-Sali could enable the conjugate to leverage the EPR effect and, therefore, more efficiently accumulate in tumors. […] Tumors and all following organ samples were collected at 24 hours post administration. The quantities of Sali-ABA were expressed as percentage of initial dose normalized by weight of organs, ID %/gram. The data were analyzed by one-way ANOVA. P-value is shown in the figure and * indicates a significant difference. At the same time, there was a reduction of Sali-ABA accumulation in the heart when iTEP-MPBH-ABA-Sali NP was compared with free Sali, although the difference was not statistically significant (0.57±0.18 ID %/gram vs 0.86±0.11 ID %/gram, FIG. 11C). The data were analyzed by one-way ANOVA. The reduction may benefit the toxicity profile of the NP as the heart is an organ sensitive to Sali (Bastianello, et al., J S Afr Vet Assoc, 1996; 67(1):38-41). […] The data were analyzed by one-way ANOVA. P-values are shown in the figure and * indicates a significant difference.

[2] = Hydrodynamic diameter by dynamic light scattering (DLS); format: physicochemical; details: 25 μM in PBS at 37° C.
Description: Characterization of the size of iTEPB-pOVA and iTEPB-iTEPA-pOVA fusions. The particle size distribution of the iTEP fusions was determined by dynamic light scattering (DLS) using a Zetasizer Nano-ZS instrument (Malvern Instruments, Malvern, UK) as previously described.^(29) The fusions were prepared at 5 μM and 25 μM in PBS and equilibrated at 37° C. for the measurement. The reported results represented the average particle size by number.
Dynamic light scattering (DLS) measurement. The measurement was carried out as previously described. iTEP, iTEP-MPBH-ABA-Sali conjugate, or PTX NP were measured at 25 μM in PBS at 37° C. using a Malvern Zetasizer Nano system (Malvern, Chester County, PA, USA).
Characterization of hydrodynamic diameters of iTEP-vaccine fusions. Hydrodynamic diameters of iTEP-vaccine fusions were determined by dynamic light scattering (DLS) using a Zetasizer Nano-ZS instrument (Malvern Instruments, Malvern, UK) as previously described (Zhao et al., Mol Pharm, 2014; 11(8):2703-12). The samples were resuspended at concentrations of 5, 25, 50, and 100 μM in PBS and sat at room temperature overnight before measurement. Some samples were kept in 5% C02 at 37° C. for 16 h before DLS measurement. Hydrodynamic diameter results of the sample of 5 μM concentration were reported because they were not affected by the used sample concentrations. Hydrodynamic diameters were presented using the size-by-number distribution approach. Z-average values and sizes-by-intensity data, however, were also reported.

[3] = test system: mammosphere 4T1-luc cells; test: Cytotoxicity, mammosphere 4T1-luc cells (CSCs); format: cell-based, murine
Description: as §1

[4] = Pharmacokinetics (plasma Sali-ABA) after intravenous administration; set-up: species or system mice; details: mouse, in vivo
Description: as §2
Results. The pharmacokinetics of Sali-ABA and iTEP-MPBH-ABA-Sali were compared after they were administered intravenously to mice at a dose of 20 mg/Kg Sali-ABA equivalent. Plasma concentrations of Sali-ABA after the administration of either formulation were monitored for up to 24 hours (FIG. 11A). The temporal changes of the concentrations were fitted into a two-compartment pharmacokinetics model.

[5] = In vitro Sali-ABA release assay; format: physicochemical; details: neutral pH (PBS), up to 100-hour monitoring
Description: In vitro Sali-ABA release assay. The release of Sali-ABA from iTEP-MPBH-ABA-Sali NP was measured after the NP was incubated in PBS (pH=7.4) or 0.1M sodium acetate/acetic acid buffer (pH=5) at 37° C. Multiple repeats of each mixture were kept in separate Eppendorf tubes and shaken at 100 rpms at 37° C. At predetermined time points, free Sali-ABA in one tube of sample was determined by HPLC based on a standard curve of Sali-ABA. The standard curve was established at 280 nm. The HPLC setup was the same as the described herein.
The relationship of the percentage of Sali-ABA release (F) with time (t) was fitted using the following equation and GraphPad V5.0. F%,released=100[…]

[6] = test system: 4T1-luc orthotopic tumors; test: Tumor growth, metastasis and survival study; format: in vivo, Balb/c mice
Description: Tumor growth study. Balb/c mice were inoculated subcutaneously with 10^6 4T1-luc cells in 50 μL PBS at the #9 mammary glands. At the seventh day after inoculation when the volumes of all tumors reached or exceeded 100 mm^3, the mice were randomly assigned into groups as described in FIGS. 12 and 13. The dosing and dosing schedules are as following: • 1. PBS control (three day interval); Sali-ABA (20 mg/Kg BW, three-day interval), • 2. iTEP-MPBH-ABA-Sali NP (20 mg/Kg BW, three-day interval), • 3. PTX NP (10 mg/Kg BW, three-day interval), • 4. PTX NP and iTEP-MPBH-ABA-Sali combination, iTEP-MPBH-ABA-Sali NP on the first day (20 mg/Kg BW), PTX NP on the second day (10 mg/Kg BW), then two-day interval.
Seven total doses were administered intravenously. The length and width dimensions of tumors were measured with a caliper every other day. Tumor volumes were estimated using the formula: Tumor Volume=(length×width^2/2) (Zhang et al., Biomaterials, 2012; 33(2):679-91). Also, mouse body weight was recorded the same day when the tumor size was measured. The treatments of PTX NP and the combinational therapy were done after the results of the first three treatment groups were obtained.
Moreover, in order to monitor metastasis, bioluminescence signals released from 4T1-luc cells were monitored as previously described (Tao et al., BMC Cancer, 2008; 8(1):228). Specifically, experimental mice were injected intraperitoneally with 100 μl of D-luciferin (15 mg/ml) at predetermined time points (twice each week, 3-4 days interval). At 15 minutes after luciferin injection, the mice were imaged under anesthesia in a Xenogen IVIS 200 biophotonic imager (PerkinElmer, Inc., MA, USA). The bioluminescence intensity was denoted using photon emission from the subject or radiance in the unit of photons/sec/cm^2/sr (steradian). […] The overall survival time was counted as days between tumor inoculation and mouse sacrifice. Metastasis-free survival and overall survival were analyzed by the Kaplan-Meier method, and the median survival of each groups were compared using the Log-rank test with GraphPad V5.0.

Molecule	IC50 (regular 4T1-luc cells; Mus musculus, 4T1-Luc, 72 h)	Sali-ABA accumulation in the heart [1]	hydrodynamic diameter (DLS) [2]	times more toxic to mammosphere 4T1-luc cells (CSCs) than to regular 4T1-luc cells [3]	IC50 ([3]; mammosphere 4T1-luc cells, 72 hours)	elimination half-life, times longer than free Sali-ABA administration [4]	cytotoxicity, times lower than Sali-ABA-MPBH alone (regular 4T1-luc cells; regular 4T1-luc cells)	IC50 (regular 4T1-luc cells; regular 4T1-luc cells, 72 hours, read-out: IC50)	release at the neutral pH [5]	median overall survival ([6]; days after tumor inoculation)	development of metastasis in treated mice ([6]; mouse, in vivo, listed as iTEP-MPBH-ABA-Sali NP)	inhibition of primary tumor growth ([6]; seven intravenous doses)
CC[C@@H](C(=O)[C@@H](C)[C@@H](O)[C@H](C)[C@@H]1O[C@@H]([C@@H](CC)C(=O)O)CC[C@@H]1C)[C@H]1O[C@]2(C=C[C@@H](O)[C@]3(CC[C@@](C)([C@H]4CC[C@](O)(CC)[C@H](C)O4)O3)O2)[C@H](C)C[C@@H]1C [Sali, Salinomycin, reference compound]	4.4 µM	0.86±0.11 ID %/gram										
B1			51.2±18.2 nm	about eight	5.8 µM	35 times	2.6 times	42.2 µM	no detectable release	39 days	No mice in the NP-treated group developed metastasis; also recorded: zero metastasis	slowed primary tumor growth
